Patent publication US20130039923A1 (Novo Nordisk, published 2013)
Where two headings read alike, the source gives them in different places.

Legend:
Assay in all cases: Ala-scan peptide array of hIL20 74-96 on cellulose; fluorescein-labelled antibody; fluorescence as OD
[1] = biological target: T1, Peptide no. 44 (Figure 8A)
T1 construct: Ala-scan peptide on the array; also called Peptide no; D78A
T1 peptide: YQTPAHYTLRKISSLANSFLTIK
Method: (§1) The screenings were done using fluorescence labelled antibodies. The labelling was done by gel-filtering the antibody stock against 1% NaHCO3, using NAP5 column (GE Healthcare according the manual from manufacturer. This was followed by adding 25 mole equivalents of 5(6)-carboxyfluorescein N-hydroxysuccinimide ester (Sigma, C1609) dissolved in DMSO. The coupling was allowed to continue for 2 hours followed by a gelfiltration against TRIS washing buffer (50 mM TRIS, pH=7.4, 0.15M NaCl, 0.1 M ArgHCl, 0.05% Tween 20) in order to removed uncoupled fluorescein.
(§2) Screening of arrays were done by adding 10 μl of antibody to 30 ml incubation buffer (0.5% BSA, 50 mM TRIS, pH=7.4, 0.15M NaCl, 0.1 M ArgHCl, 0.05% Tween 20). The sheets were incubated for 1-2 hours, followed by washing five times with washing buffer. […] The fluorescence intensity were measured and transformed into digits that were exported to Prism 5 (Graph Pad Software, USA) for further analysis.

[2] = biological target: T2, Peptide no. 42 (Figure 8A)
T2 construct: Ala-scan peptide on the array; also called Peptide no; T76A
T2 peptide: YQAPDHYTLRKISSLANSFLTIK
Method: as §1, §2

[3] = biological target: T3, Peptide no. 50 (Figure 8A)
T3 construct: Ala-scan peptide on the array; also called Peptide no; K84A
T3 peptide: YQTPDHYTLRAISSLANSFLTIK
Method: as §1, §2

[4] = biological target: T4, Peptide no. 53 (Figure 8A)
T4 construct: Ala-scan peptide on the array; also called Peptide no; S87A
T4 peptide: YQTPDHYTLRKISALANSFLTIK
Method: as §1, §2

[5] = biological target: T5, Peptide no. 57 (Figure 8A)
T5 construct: Ala-scan peptide on the array; also called Peptide no; F92A
T5 peptide: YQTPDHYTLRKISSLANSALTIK
Method: as §1, §2

[6] = biological target: T6, Peptide no. 61 (Figure 8A)
T6 construct: Ala-scan peptide on the array; also called Peptide no; K96A
T6 peptide: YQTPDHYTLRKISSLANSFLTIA
Method: as §1, §2

[7] = biological target: T7, Peptide no. 54 (Figure 8A)
T7 construct: Ala-scan peptide on the array; also called Peptide no; L88A
T7 peptide: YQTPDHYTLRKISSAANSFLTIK
Method: as §1, §2

[8] = biological target: T8, Peptide no. 51 (Figure 8A)
T8 construct: Ala-scan peptide on the array; also called Peptide no; I85A
T8 peptide: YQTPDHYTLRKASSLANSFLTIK
Method: as §1, §2

[9] = biological target: T9, Peptide no. 49 (Figure 8A)
T9 construct: Ala-scan peptide on the array; also called Peptide no; R83A
T9 peptide: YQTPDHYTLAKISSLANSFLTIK
Method: as §1, §2

[10] = biological target: T10, Peptide no. 60 (Figure 8A)
T10 construct: Ala-scan peptide on the array; also called Peptide no; I95A
T10 peptide: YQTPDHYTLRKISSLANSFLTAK
Method: as §1, §2

[11] = biological target: T1, Peptide no. 44 (Figure 8A)
Method: as §1, §2

[12] = biological target: T2, Peptide no. 42 (Figure 8A)
Method: as §1, §2

[13] = biological target: T11, Peptide no. 48 (Figure 8A)
T11 construct: Ala-scan peptide on the array; also called Peptide no; L82A
T11 peptide: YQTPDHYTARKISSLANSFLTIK
Method: as §1, §2

[14] = biological target: T12, Peptide no. 47 (Figure 8A)
T12 construct: Ala-scan peptide on the array; also called Peptide no; T81A
T12 peptide: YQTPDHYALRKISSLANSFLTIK
Method: as §1, §2

[15] = biological target: T3, Peptide no. 50 (Figure 8A)
Method: as §1, §2

[16] = biological target: T13, Peptide no. 59 (Figure 8A)
T13 construct: Ala-scan peptide on the array; also called Peptide no; T94A
T13 peptide: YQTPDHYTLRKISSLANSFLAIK
Method: as §1, §2

[17] = biological target: T14, Peptide no. 55 (Figure 8A)
T14 construct: Ala-scan peptide on the array; also called Peptide no; N90A
T14 peptide: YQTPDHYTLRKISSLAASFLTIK
Method: as §1, §2

[18] = biological target: T15, Peptide no. 46 (Figure 8A)
T15 construct: Ala-scan peptide on the array; also called Peptide no; Y80A
T15 peptide: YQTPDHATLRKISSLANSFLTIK
Method: as §1, §2

[19] = biological target: T16, Peptide no. 43 (Figure 8A)
T16 construct: Ala-scan peptide on the array; also called Peptide no; P77A
T16 peptide: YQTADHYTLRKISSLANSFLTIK
Method: as §1, §2

[20] = biological target: T5, Peptide no. 57 (Figure 8A)
Method: as §1, §2

[21] = biological target: T7, Peptide no. 54 (Figure 8A)
Method: as §1, §2

[22] = biological target: T17, Peptide no. 41 (Figure 8A)
T17 construct: Ala-scan peptide on the array; also called Peptide no; Q75A
T17 peptide: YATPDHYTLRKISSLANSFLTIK
Method: as §1, §2

[23] = biological target: T8, Peptide no. 51 (Figure 8A)
Method: as §1, §2

Measured: binding result

B1: human anti-hIL20 monoclonal antibody 15D2 (antibody, V domains shown)
VH: QVQLVQSGAEVKRPGASVKVSCKASGYTFTNDIIHWVRQAPGQRLEWMGWINAGYGNTQYSQNFQDRVSITRDTSASTAYMELISLRSEDTAVYYCAREPLWFGESSPHDYYGMDVWGQGTTVTVSS
VL: AIQLTQSPSSLSASVGDRVTITCRASQGISSALAWYQQKPGKAPKLLIYDASSLESGVPSRFSGSGSGTDFTLTISSLQPEDFATYYCQQFNSYPLTFGGGTKVEIKR
notes: also called 15D2-wt; 15D2 wild-type
binds: [1] | [2] | [3] | [4] | [5] | [6] | [7] | [8]

B2: human anti-hIL20 monoclonal antibody 5B7 (antibody, human IgG4, V domains shown)
VH: QVQLVQSGAEVKRPGASVKVSCKASGYTFSSHIMHWVRQAPGQRLEWMGWINAGYGNTKYSQNFQDRVTITRDTSASTAYMELISLRSEDTAVYYCAREPLWFGELSPHDYYGMDVWGQGTTVTVSS
VL: AIQLTQSPSSLSASVGDRVTITCRASQGISSALAWYQQKPGKAPKLLIYDASSLESGVPSRFSGSGSGTDFTLTISSLQPEDFATYYCQQFNSYPLTFGGGTKVEIKR
notes: described as human IgG4; also called 5B7-wt
binds: [9] | [10] | [11] | [12] | [13] | [14] | [15] | [16] | [17] | [18] | [19] | [20] | [21] | [22] | [23]
